The values that follow come from patent US20050272636A1, “Treatment and diagnosis of a reproductive disorder by measuring or inhibiting interferon-gamma” (Adelaide Research & Innovation Pty Ltd., priority 2002, published 2005).

Experiment [1] relates to uterine luminal fluid content of GM-CSF. The experiment is described as follows: Effect of IFN-γ treatment on GM-CSF content of uterine luminal fluids in mice (Example 7). The format is in vivo. The conditions noted are these: 5 ng or 20 ng transcervical on day 1 of pregnancy; fluids 7 hrs later; p=0.03 versus PBS control, treatment groups combined. As for the experimental part: Mice were housed under specific pathogen-free conditions at the University of Adelaide Medical School Animal House on a 12:12 light-dark cycle, and were administered food and water ad libitum. Adult C57B1/6×CBA F1 females (7-10 weeks old) were caged with proven fertile Balb/c males for natural mating. The day of sighting a vaginal plug was nominated day 1 of pregnancy. Mice were randomly allocated to one of three groups and administered transcervical treatments of either 5 ng or 20 ng recombinant mouse IFN-γ (rmIFN-γ; R&D Systems) in 30 μl PBS containing 0.1% bovine serum albumin (PBS-BSA), or PBS-BSA alone (PBS control), at 0900 h on day 1. Treatments were delivered directly into the uterine lumen with the aid of a tom-cat catheter (Sovereign, St Louis Mo.), after removal of vaginal plugs using forceps to allow transcervical access. Mice were sacrificed 7 hrs later at 1600 h on day 1, and uterine luminal fluids were flushed in 1 ml PBS-BSA with a syringe and 26 gauge needle.
GM-CSF immunoactivity in uterine luminal fluids was measured by commercial mouse GM-CSF specific ELISA (R & D Systems) according to the manufacturer's instructions. Data are given as GM-CSF content in pg/ml uterine luminal fluid.

Experiment [2] concerns murine uterine epithelial cells. The experiment is described as follows: Effect of rIFNγ and rTGFβ on GM-CSF production in cultured uterine epithelial cells (Example 2). The experiment is classed as cell-based, mouse. As for the experimental part: Uterine Epithelial Cell Cultures. Uterine epithelial cells prepared as previously described (Robertson et al., Biol Reprod 46:1069-1079 (1992)) were pooled from 4-6 estrous C57B1/6 or C57B1/6×Balb/c F1 mice and plated in 1 ml culture wells (Nunc, Roskilde, Germany) at 1-2×10^5 cells per ml in 500 μl of Dulbecco's modified Eagles medium containing 10% FCS, […] streptomycin sulphate and […] benzyl penicillin (DMEM +penicillin). After 4 h incubation at 37° C. in 5% CO2 to allow cell adherence, a further 500 μl of DMEM +penicillin, or DMEM +penicillin plus recombinant mouse IFNγ (rIFNγ) and/or recombinant human TGFβ1 (rTGFβ), were added. In some experiments, penicillin-free DMEM (DMEM −penicillin) was used throughout. Culture supernatants were collected and replaced with fresh medium at 16 hours, then collected again 24 hours later, at which time GM-CSF content was determined and adherent cells were quantified as previously described (Robertson et al., Biol Reprod 46:1069-1079 (1992)). All treatments were performed in duplicate or triplicate. rTGFβ and rIFNγ were obtained from R&D Systems, UK.
GM-CSF bioassay: GM-CSF was assayed using the GM-CSF dependant cell line FD 5/12, essentially as previously described (Robertson et al., Biol Reprod 46:1069-1079 (1992)). Cell proliferation was determined by pulsing with 1 μCi of [^3H]-thymidine per well for the last 6 h of the assay. The minimal detectable amount of GM-CSF was 20 pg/ml. The identity of the bioactivity in uterine epithelial cell cultures was confirmed using a goat polyclonal antibody to murine GM-CSF (DNAX, Palo Alto, Calif.) as previously described (Robertson et al., Biol Reprod 46:1069-1079 (1992)). GM-CSF production is expressed as ng GM-CSF/10^5 cells/24 h. Recombinant mouse GM-CSF was obtained from R&D Systems.

Experiment [3] shares this test system. The experiment is described as follows: Effect of IFNγ on GM-CSF synthesis in murine uterine epithelial cells (Example 3). The format is cell-based, mouse. As for the experimental part: Uterine Epithelial Cell Cultures. Uterine epithelial cells prepared by pancreatin-trypsin digest as previously described (Robertson et al., (1992) Biol. Reprod. 46:1069-1079) were pooled from 4-6 estrous adult C57B1/6×CBA F1 female mice and plated in 1 ml culture wells (Nunc, Roskilde, Germany) at 1-2×10^5 cells per ml in 500 μl of RPMI containing 10% FCS and streptomycin (RPMI-FCS). Penicillin was omitted from culture media except where specified. After 4 h incubation at 37° C. in 5% CO2 to allow cell adherence, a further 500 μl of cytokines or antibodies in RPMI-FCS, or RPMI-FCS alone, were added. Cytokine treatments included recombinant mouse interferon-γ (rmIFNγ; R&D Systems), recombinant human transforming growth factor β1 (rhTGFβ1, R&D Systems), rhTGFβ2 (R&D Systems), rhTGFβ3 (OSI Pharmaceuticals). Antibody treatments included goat anti-mouse IFNγ receptor 1 (αIFNγR; R&D Systems AF1026) and hamster anti-mouse IFNγ (αIFNγ; R&D Systems MAB4851). Culture supernatants were collected and replaced with fresh complete RPMI-FCS alone at 16 hours, then collected again 24 hours later, at which time adherent cells were quantified as previously described (Robertson et al., (1992) Biol. Reprod. 46:1069-1079). The GM-CSF content of 24 h supernatants was determined by GM-CSF bioassay or immunoassay. All treatments were performed in duplicate or triplicate.
GM-CSF bioassay and immunoassay: Bioactive GM-CSF was assayed using the GM-CSF dependant cell line FD 5/12, essentially as previously described (Robertson et al., (1992) Biol. Reprod. 46:1069-1079). Cell proliferation was determined by the addition of 1 μCi of [^3H]-thymidine per well for the last 6 h of the assay. […] GM-CSF immunoactivity was in some experiments measured by commercial mouse GM-CSF specific ELISA (R & D Systems) according to the manufacturer's instructions.

B1: rIFNγ: recombinant mouse IFNγ (R&D Systems) (protein, UniProt P01580 23-155, looked up)
Interferon gamma: HGTVIESLESLNNYFNSSGIDVEEKSLFLDIWRNWQKDGDMKILQSQIISFYLRLFEVLKDNQAISNNISVIESHLITTFFSNSKAKKDAFMSIAKFEVNNPQVQRQAFNELIRVVHQLLPESSLRKRKRSRC
Regarding B1, the “effect on uterine luminal fluid content of GM-CSF” value in experiment [1] is given as “reduce uterine luminal fluid content of GM-CSF”. In experiment [2] (DMEM +penicillin), the “rIFNγ concentrations at which an inhibitory effect was not seen” value is on record as “less than 150 pg/ml”. Further, the “rIFN-γ concentration eliciting maximal decrease in GM-CSF production” value in experiment [2] (DMEM +penicillin, dose-dependent decrease in each of three experiments) was at least 2.5 ng/mL. Besides, the “rIFNγ concentration giving maximal decrease in GM-CSF production” value in experiment [2] (DMEM -penicillin, three experiments) is at least 2.5 ng/mL. Besides, the “rIFNγ concentration at which inhibitory effect was still observed” value in experiment [2] (absence of penicillin) came out at 2 pg/mL. The “lowest effective concentration of rIFNγ” value in experiment [2] (in the presence of 0.5 ng/ml rTGFβ) came to 39 pg/mL. The “lowest effective inhibitory concentration of rIFNγ” value in experiment [2] (in the presence of 5 ng/ml of rTGFβ) came out at 2.5 ng/mL. Also, in experiment [2] (rTGFβ-stimulated cells, DMEM +penicillin), the “rIFNγ concentration with maximal inhibition of rTGFβ induction of GM-CSF synthesis” value was at least 2.5 ng/mL. For the same molecule, the “IFNγ concentration giving significant inhibition (GM-CSF synthesis <50% of control values)” value in experiment [3] was over 150 pg/mL. Further, in experiment [3] (absence of penicillin), the “IFNγ concentration inhibiting GM-CSF synthesis (<50% of control values)” value was at least 9.8 pg/mL. Moreover, the “IFNγ concentration at which inhibition of GM-CSF synthesis was evident” value in experiment [3] (more than six experiments, penicillin omitted) is at least 40 pg/mL.
